# Experimental data as given in article doi:10.1101/2022.04.08.487678 (bioRxiv, 2022).
# Biological target: CcdB, biotinylated (E. coli (F-plasmid), UniProt P62554 1-101)
# Experiment: flow cytometry on cells
# CcdB, biotinylated, sequence (P62554 whole entry): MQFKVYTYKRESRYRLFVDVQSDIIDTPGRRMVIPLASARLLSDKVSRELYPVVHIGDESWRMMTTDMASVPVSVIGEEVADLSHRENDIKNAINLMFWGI
binder,measurement,value
"CcdA wild type, displayed on the yeast surface (natural protein) MKQRITVTVDSDSYQLLKAYDVNISGLVSTTMQNEARRLRAERWKAENQEGMAEVARFIEMNGSFADENRDW",Kd,0.25 ± 0.05 nM
